Source: US8987424B2, “CA6 antigen-specific cytotoxic conjugate and methods of using the same” (ImmunoGen, Inc., priority 2003, dated 2015)

Columns and labels:
Test in all cases: Flow cytometry binding assay
Parameters in all cases: species or system human
[1] = test system: WISH cells
Method: (§1) Flow cytometric analysis was used to localize the DS6 epitope, CA6, to the cell surface. Human cell lines were obtained from the American Type Culture Collection (ATCC) with the exception of OVCAR5 (Kearse et al., Int. J. Cancer 88(6):866-872 (2000)), OVCAR8 and IGROV1 cells (M. Seiden, Massachusetts General Hospital). All cells were grown in RPMI 1640 supplemented with 4 mM L-glutamine, 50 U/ml penicillin, 50 μg/ml streptomycin (Cambrex Bio Science, Rockland, Me.) and 10% v/v fetal bovine serum (Atlas Biologicals, Fort Collins, Colo.), referred hereafter as culture media. Cells were maintained in a 37° C., 5% CO2 humidified incubator.
(§2) Cells ([…]) were incubated, on ice for 3-4 h, with serially diluted concentrations of the DS6 antibody prepared in FACS buffer (2% goat serum, RPMI) into 96-well plates. The cells were spun down in a table top centrifuge at 1500 rpm for 5 min at 4° C. After removing the media, the wells were then refilled with 150 μl of FACS buffer. The wash step was then repeated. FITC-labeled goat anti-mouse IgG (Jackson Immunoresearch) was diluted 1:100 to FACS buffer and incubated with the cells for 1 h on ice. The plate was covered in foil to prevent photobleaching of the signal. After two washes, the cells were fixed with 1% formaldehyde and analyzed on a flow cytometer.

[2] = test system: T-47D cells
Method: as §1, §2

[3] = test system: MDA-MB-468 cells
Method: as §1, §2

[4] = test system: SU.86.86 cells
Method: as §1, §2

[5] = test system: MCF-7 cells
Method: as §1, §2

[6] = test system: CAMA-1 cells
Method: as §1, §2

[7] = test system: BT-483 cells
Method: as §1, §2

[8] = test system: SW1990 cells
Method: as §1, §2

[9] = test system: HPAC cells
Method: as §1, §2

[10] = test system: PC-3 cells
Method: as §1, §2

[11] = test system: OVCAR-3 cells; settings: OVCAR3
Method: as §1, §2

[12] = test system: BT-20 cells
Method: as §1, §2

[13] = test system: Caov-4 cells
Method: as §1, §2

[14] = test system: BT-549 cells
Method: as §1, §2

[15] = test system: Colo205 cells; settings: Colo205, antigen negative cell line
Method: as §1, §2

[16] = test system: Hs766T cells
Method: as §1, §2

[17] = test system: TOV-21G cells
Method: as §1, §2

[18] = test system: ZR-75-1 cells
Method: as §1, §2

[19] = test system: T98G cells
Method: as §1, §2

[20] = test system: SK-OV-3 cells
Method: as §1, §2

[21] = test system: OVCAR5 cells
Method: as §1, §2

[22] = test system: BxPC-3 cells
Method: as §1, §2

[23] = test system: KLE cells
Method: as §1, §2

[24] = test system: MDA-MB-231 cells
Method: as §1, §2

[25] = test system: HPAF-II cells
Method: as §1, §2

[26] = test system: MDA-MB-157 cells
Method: as §1, §2

[27] = test system: HeLa cells; settings: HeLa
Method: Cells were maintained in a 37° C., 5% CO2 humidified incubator.
as §2

B1: DS6: murine anti-CA6 monoclonal antibody DS6 (ATCC deposit number PTA-4449) (antibody, V domains shown)
VH: QAYLQQSGAELVRSGASVKMSCKASGYTFTSYNMHWVKQTPGQGLEWIGYIYPGNGATNYNQKFKGKATLTADPSSSTAYMQISSLTSEDSAVYFCARGDSVPFAYWGQGTLVTVSA
VL: QIVLTQSPAIMSASPGEKVTITCSAHSSVSFMHWFQQKPGTSPKLWIYSTSSLASGVPARFGGSGSGTSYSLTISRMEAEDAATYYCQQRSSFPLTFGAGTKLELKR
MMF (average maximum relative mean fluorescence) [1]: 1133.55
MMF (average maximum relative mean fluorescence) [2]: 559.58
MMF (average maximum relative mean fluorescence) [3]: 71.58
MMF (average maximum relative mean fluorescence) [4]: 36.86
MMF (average maximum relative mean fluorescence) [5]: 81.41
MMF (average maximum relative mean fluorescence) [6]: 12.46
MMF (average maximum relative mean fluorescence) [7]: 1911.00
MMF (average maximum relative mean fluorescence) [8]: 36.17
MMF (average maximum relative mean fluorescence) [9]: 2228.00
MMF (average maximum relative mean fluorescence) [10]: 24.81
MMF (maximum mean relative fluorescence) [11]: 21.19
MMF (average maximum relative mean fluorescence) [12]: 232.20
MMF (average maximum relative mean fluorescence) [13]: 149.00
MMF (average maximum relative mean fluorescence) [14]: 71.39
antigen specific binding [15]: no antigen specific binding
MMF (average maximum relative mean fluorescence) [16]: 182.90
MMF (average maximum relative mean fluorescence) [17]: 87.79
MMF (average maximum relative mean fluorescence) [18]: 811.67
MMF (average maximum relative mean fluorescence) [19]: 35.94
Kd ([19]; read-out: Apparent Kd): 0.178 nM
antigen specific binding ([20]; SK-OV-3, antigen negative cell line): no antigen specific binding
MMF (maximum mean relative fluorescence) ([20]; SKOV3): 17.53
MMF (average maximum relative mean fluorescence) [21]: 97.10
MMF (average maximum relative mean fluorescence) [22]: 79.99
MMF (maximum mean relative fluorescence) [23]: 27.48
MMF (average maximum relative mean fluorescence) [24]: 31.85
MMF (average maximum relative mean fluorescence) [25]: 266.50
MMF (average maximum relative mean fluorescence) [26]: 8.635
MMF (average maximum relative mean fluorescence) [27]: 242.50
